From patent US20180339017A1 (Merck Sharp & Dohme, published 2018)
Like-named read-outs stand apart in the source and are kept apart here. Blank lines part the entries; values can stand above or below the binder they belong to. Starred links: 1 amine or outer side, 2 acyl side, 3 side chain; linkers in the order of their positions; H or OH if unused. Non-standard residues stand in square brackets, D forms with d. Groups on a side chain read outwards from the residue. No end group written: not given here. *: point of attachment. γGlu = O=C(O)[C@H](CCC(=O)[*:2])N[*:1]; Palmitoyl = CCCCCCCCCCCCCCCC(=O)*

Tests used:
Test in all cases: cell-based or functional assay
human glucagon receptor [1] = target: T1, human glucagon receptor (human, UniProt P47871 26-477)
T1 sequence (P47871 26-477): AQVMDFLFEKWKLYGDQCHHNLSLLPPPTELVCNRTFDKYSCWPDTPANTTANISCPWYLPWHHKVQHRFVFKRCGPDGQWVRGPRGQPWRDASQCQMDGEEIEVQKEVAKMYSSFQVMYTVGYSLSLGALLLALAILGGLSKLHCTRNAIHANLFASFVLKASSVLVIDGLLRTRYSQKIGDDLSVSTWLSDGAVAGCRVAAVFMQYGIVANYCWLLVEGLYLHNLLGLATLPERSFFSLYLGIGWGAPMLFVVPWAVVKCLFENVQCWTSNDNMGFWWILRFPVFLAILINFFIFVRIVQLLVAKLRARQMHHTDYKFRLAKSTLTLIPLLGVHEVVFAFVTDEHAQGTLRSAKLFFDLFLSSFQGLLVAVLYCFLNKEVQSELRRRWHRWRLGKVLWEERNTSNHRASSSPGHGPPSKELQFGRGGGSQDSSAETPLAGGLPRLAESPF

human GLP-1 receptor [2] = target: T2, human GLP-1 receptor (human, UniProt P43220 24-463)
human glucagon receptor [3] = target: T1, human glucagon receptor; remark: listed apart in the source
human GLP-1 receptor [4] = target: T2, human GLP-1 receptor; remark: listed apart in the source

- EC50 hGCGR (cAMP activity assay) (human glucagon receptor [1]): 0.04 nM
- EC50 hGLP1 (cAMP activity assay) (human GLP-1 receptor [2]): 5 nM
B1: TP536 (peptide)
peptide: H[dS]QGTFLSDK([γGlu-γGlu-Palmitoyl])SKLLDSRRAQDFVQWLMQT-NH2
modifications: N-terminus assumed
SMILES: CCCCCCCCCCCCCCCC(=O)N[C@@H](CCC(=O)N[C@@H](CCC(=O)NCCCC[C@H](NC(=O)[C@H](CC(=O)O)NC(=O)[C@H](CO)NC(=O)[C@H](CC(C)C)NC(=O)[C@H](Cc1ccccc1)NC(=O)[C@@H](NC(=O)CNC(=O)[C@H](CCC(N)=O)NC(=O)[C@@H](CO)NC(=O)[C@@H](N)Cc1c[nH]cn1)[C@@H](C)O)C(=O)N[C@@H](CO)C(=O)N[C@@H](CCCCN)C(=O)N[C@@H](CC(C)C)C(=O)N[C@@H](CC(C)C)C(=O)N[C@@H](CC(=O)O)C(=O)N[C@@H](CO)C(=O)N[C@@H](CCCNC(=N)N)C(=O)N[C@@H](CCCNC(=N)N)C(=O)N[C@@H](C)C(=O)N[C@@H](CCC(N)=O)C(=O)N[C@@H](CC(=O)O)C(=O)N[C@@H](Cc1ccccc1)C(=O)N[C@H](C(=O)N[C@@H](CCC(N)=O)C(=O)N[C@@H](Cc1c[nH]c2ccccc12)C(=O)N[C@@H](CC(C)C)C(=O)N[C@@H](CCSC)C(=O)N[C@@H](CCC(N)=O)C(=O)N[C@H](C(N)=O)[C@@H](C)O)C(C)C)C(=O)O)C(=O)O

- EC50 hGCGR (cAMP activity assay) (human glucagon receptor [1]): 0.16 nM
- EC50 hGLP1 (cAMP activity assay) (human GLP-1 receptor [2]): 0.05 nM
Binder: HSQGTFTSDYSKYLDNKRAQDFVQWLMQT-NH2 [PD37]

- EC50 hGCGR (cAMP activity assay) (human glucagon receptor [1]): 0.01 nM
- EC50 hGLP1 (cAMP activity assay) (human GLP-1 receptor [2]): 0.02 nM
B2: TP534 (peptide)
peptide: H[dS]QGTFTSDK([γGlu-γGlu-Palmitoyl])SKYLDNKRAQDFVQWLMQT-NH2
modifications: N-terminus assumed
SMILES: CCCCCCCCCCCCCCCC(=O)N[C@@H](CCC(=O)N[C@@H](CCC(=O)NCCCC[C@H](NC(=O)[C@H](CC(=O)O)NC(=O)[C@H](CO)NC(=O)[C@@H](NC(=O)[C@H](Cc1ccccc1)NC(=O)[C@@H](NC(=O)CNC(=O)[C@H](CCC(N)=O)NC(=O)[C@@H](CO)NC(=O)[C@@H](N)Cc1c[nH]cn1)[C@@H](C)O)[C@@H](C)O)C(=O)N[C@@H](CO)C(=O)N[C@@H](CCCCN)C(=O)N[C@@H](Cc1ccc(O)cc1)C(=O)N[C@@H](CC(C)C)C(=O)N[C@@H](CC(=O)O)C(=O)N[C@@H](CC(N)=O)C(=O)N[C@@H](CCCCN)C(=O)N[C@@H](CCCNC(=N)N)C(=O)N[C@@H](C)C(=O)N[C@@H](CCC(N)=O)C(=O)N[C@@H](CC(=O)O)C(=O)N[C@@H](Cc1ccccc1)C(=O)N[C@H](C(=O)N[C@@H](CCC(N)=O)C(=O)N[C@@H](Cc1c[nH]c2ccccc12)C(=O)N[C@@H](CC(C)C)C(=O)N[C@@H](CCSC)C(=O)N[C@@H](CCC(N)=O)C(=O)N[C@H](C(N)=O)[C@@H](C)O)C(C)C)C(=O)O)C(=O)O

- EC50 hGCGR (cAMP activity assay) (human glucagon receptor [1]): 0.02 nM
- EC50 hGLP1 (cAMP activity assay) (human GLP-1 receptor [2]): 5 nM
B3: TP552 (peptide)
peptide: H[dS]QGTFLSDYSKLLDSRAAQDFVQWLLQT-NH2
modifications: N-terminus assumed
SMILES: CC(C)C[C@H](NC(=O)[C@H](CC(C)C)NC(=O)[C@H](CCCCN)NC(=O)[C@H](CO)NC(=O)[C@H](Cc1ccc(O)cc1)NC(=O)[C@H](CC(=O)O)NC(=O)[C@H](CO)NC(=O)[C@H](CC(C)C)NC(=O)[C@H](Cc1ccccc1)NC(=O)[C@@H](NC(=O)CNC(=O)[C@H](CCC(N)=O)NC(=O)[C@@H](CO)NC(=O)[C@@H](N)Cc1c[nH]cn1)[C@@H](C)O)C(=O)N[C@@H](CC(=O)O)C(=O)N[C@@H](CO)C(=O)N[C@@H](CCCNC(=N)N)C(=O)N[C@@H](C)C(=O)N[C@@H](C)C(=O)N[C@@H](CCC(N)=O)C(=O)N[C@@H](CC(=O)O)C(=O)N[C@@H](Cc1ccccc1)C(=O)N[C@H](C(=O)N[C@@H](CCC(N)=O)C(=O)N[C@@H](Cc1c[nH]c2ccccc12)C(=O)N[C@@H](CC(C)C)C(=O)N[C@@H](CC(C)C)C(=O)N[C@@H](CCC(N)=O)C(=O)N[C@H](C(N)=O)[C@@H](C)O)C(C)C

- EC50 hGCGR (cAMP activity assay) (human glucagon receptor [3]): 0.02 nM
- EC50 hGLP1R (cAMP activity assay) (human GLP-1 receptor [4]): 0.02 nM
- EC50 hGCGR (cAMP activity assay) (human glucagon receptor [1]): 0.02 nM
- EC50 hGLP1 (cAMP activity assay) (human GLP-1 receptor [2]): 0.02 nM
Binder: HSQGTFTSDYSKYLDSRRAHDFVQWLLNT-NH2 [PD29]
